Reference: patent publication US20130289246A1

Assays:
Assay in all cases: cell-based or functional assay
[1] = target: HA of A/Vietnam/1203/2004 (H5N1) virus (Influenza A virus (H5N1))
[2] = target: HA of A/California/04/2009 (H1N1) virus (Influenza A virus (H1N1))
[3] = target: HA of A/Hong Kong/1/1968 (H3N2) virus (Influenza A virus (H3N2)) (UniProt Q91MA7)
[4] = target: HA of A/Alabama/1/1981 (H3N2) virus (Influenza A virus (H3N2))

Q: Which results are given for murine hybridoma mAb S139/1 (antibody)?
A: HAI activity [1]: > 50 µg/mL; HAI activity [2]: > 50 µg/mL; HAI activity [3]: < 0.2 µg/mL; HAI activity [4]: > 50 µg/mL
